According to patent US20090220521A1 (published 2009):
Residue numbers refer to the chain shown, from its start.

B1: Bax69 (antibody, V domains shown)
VH: EVQLLESGGGLVQPGGSLRLSCAASGFTFSIYSMNWVRQAPGKGLEWVSSIGSSGGTTYYADSVKGRFTISRDNSKNTLYLQMNSLRAEDTAVYYCAGSQWLYGMDVWGQGTTVTVSS
VL: DIQMTQSPSSLSASVGDRVTITCRSSQRIMTYLNWYQQKPGKAPKLLIFVASHSQSGVPSRFRGSGSETDFTLTISGLQPEDSATYYCQQSFWTPLTFGGGTKVEIK
B2: Bax74 (antibody, V domains shown)
VH: EVQLLESGGGLVQPGGSLRLSCAASGFTFSKYYMIWVRQAPGKGLEWVSWIGPSGGFTFYADSVKGRFTISRDNSKNTLYLQMNSLRAEDTAVYYCARGTPDYGGNSLDHWGQGTLVTVSS
VL: DIQMTQSPSSLPASVGDRVTITCRASQSIGTYLSWYQHKPGNAPKLLIYATSRLQSGVPSRFSGGGSGTRFTLAISSLQPDDFATYFCQQTYSTPLTFGGGTKVDIK
B3: BaxA10 (antibody, V domains shown)
VH: EVQLLESGGGLVQPGGSLRLSCAASGFTFSWYAMDWVRQAPGKGLEWVSGIYPSGGRTKYADSVKGRFTISRDNSKNTLYLQMNSLRAEDTAVYYCARVNVIAVAGTGYYYYGMDVWGQGTTVTVSS
VL: DIQMTQSPGTLSLSPGERATLSCRASQGVSSSSLAWYQQKPGQAPRLLIYGTSSRATGIPDRFSGSASGTDFTLTISRLQPEDFAVYYCQQYGRSLTFGGGTKVEIK
B4: Bax152 (antibody, V domains shown)
VH: B3 VH with W31I, Y52V, R57F
VL: B3 VL with G9V, G28S, S30R, S33Y, A44T, T52A, S54N, A67G, Q80E, R94N
B5: anti-MIF antibody Bax94 (antibody, V domains shown)
VH: B3 VH with W31I, Y52V, R57F
VL: B3 VL

molecular target: recombinant human MIF (macrophage migration inhibitory factor) (human, UniProt P14174 2-115); test: Biacore; Fab fragment
Sequence (P14174 2-115): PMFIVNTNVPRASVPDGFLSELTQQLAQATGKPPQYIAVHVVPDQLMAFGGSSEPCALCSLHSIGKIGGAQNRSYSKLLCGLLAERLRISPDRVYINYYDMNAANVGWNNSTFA

| Kd | Binder |
| --- | --- |
| 55 nM | B1 |
| 93 nM | B2 |
| 0.4 nM | B3 |
| 16 nM | B4 |
| 4 nM | B5 |
